{
  "source": "paper PMC7101348",
  "about": "“Modulation of BIN2 kinase activity by HY5 controls hypocotyl elongation in the light” (Nature Communications, 2020)",
  "binders": {"B1": {"name": "GST-HY5-C (HY5 aa 78-168) (domain or fragment, Arabidopsis thaliana, UniProt O24646 78-168, looked up)", "chain": "RKRGRTPAEKENKRLKRLLRNRVSAQQARERKKAYLSELENRVKDLENKNSELEERLSTLQNENQMLRHILKNTTGNKRGGGGGSNADASL"}, "B2": {"name": "GST-HY5 (full-length HY5, HY5-F) (natural protein, Arabidopsis thaliana, UniProt O24646 1-168, looked up)", "chain": "MQEQATSSLAASSLPSSSERSSSSAPHLEIKEGIESDEEIRRVPEFGGEAVGKETSGRESGSATGQERTQATVGESQRKRGRTPAEKENKRLKRLLRNRVSAQQARERKKAYLSELENRVKDLENKNSELEERLSTLQNENQMLRHILKNTTGNKRGGGGGSNADASL"}, "B3": {"name": "GST-HY5-M (HY5 L137D) (natural protein, Arabidopsis thaliana, UniProt O24646 1-168, looked up)", "chain": "B2 chain with L137D", "notes": "HY5, Arabidopsis, with Leu137 changed to Asp; Probably full-length HY5; also called mutated HY5; source: recombinant protein, purified"}},
  "key": {"[1]": {"biological_target": "T1, His-BIN2 (full-length BIN2) (Arabidopsis thaliana, UniProt Q39011 1-380)", "T1 sequence (looked up)": "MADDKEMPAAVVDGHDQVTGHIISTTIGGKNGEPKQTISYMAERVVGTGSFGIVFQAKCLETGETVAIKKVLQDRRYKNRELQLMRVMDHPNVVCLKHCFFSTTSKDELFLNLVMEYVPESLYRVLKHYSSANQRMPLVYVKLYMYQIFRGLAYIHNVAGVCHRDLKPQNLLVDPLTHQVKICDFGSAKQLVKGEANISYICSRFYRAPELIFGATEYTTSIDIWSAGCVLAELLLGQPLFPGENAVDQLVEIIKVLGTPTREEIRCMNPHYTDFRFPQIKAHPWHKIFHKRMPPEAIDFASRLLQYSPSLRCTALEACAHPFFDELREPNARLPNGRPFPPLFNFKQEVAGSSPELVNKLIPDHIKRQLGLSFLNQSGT", "experiment": "cell-based or functional assay"}, "[2]": {"biological_target": "T1, His-BIN2 (full-length BIN2)", "experiment": "pull-down; 1 μg GST-HY5 and 1 μg His-BIN2 in 1 ml binding buffer (25 mM Tris-Cl pH 7.5, 100 mM NaCl, 0.1% NP40), 4 °C; GST beads; washed with 25 mM Tris-Cl pH 7.5, 500 mM NaCl; blots with anti-GST and anti-His", "conditions": "both partners purified"}},
  "note": "Where a chain is given by its changes, count along the chain named. Names and notes keep the numbering of the source.",
  "data": [
    {"binder": "B1", "values": [
      {"measurement": "in vitro kinase assay: BIN2-mediated phosphorylation of BZR1 with recombinant C-terminal domain of HY5 (HY5-C) added, against the control", "setting": "[1]", "result": "~2", "unit": "fold"}
    ]},
    {"binder": "B2", "values": [
      {"measurement": "in vitro kinase assay: BIN2-mediated phosphorylation of BZR1 with recombinant full-length HY5 (HY5-F) added, against the control", "setting": "[1]", "result": "~2", "unit": "fold"}
    ]},
    {"binder": "B3", "values": [
      {"measurement": "binding result", "setting": "[2]", "result": "binds"}
    ]}
  ]
}
